Experimental data: the nanobody polyreactivity screen of Harvey et al. (2022)

Test: yeast display, Sf9 membrane polyspecificity reagent, FACS + sequencing; frameworks hold sequencing errors
Method in brief: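 Nanobodies came from a synthetic yeast display library in Saccharomyces cerevisiae BJ5465, induced with galactose for 36–48 hours and stained for 1 hour at 4 °C with 10% biotinylated, detergent-solubilized Sf9 membrane reagent. Cells were enriched on streptavidin microbeads and then FACS-sorted, with low and high (top ~1%) gates set on anti-HA fluorescence for expression and streptavidin fluorescence for reagent binding. Each polyreactivity label reflects the gate a clone came from. Genes were amplified by colony PCR, sequenced by MiSeq 2 × 250 and filtered by CDR length.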
With “QVQLVESGGGLVQAGGSLRLSCAASGSIFGYNAMGWSRQAPGKERELVAGITSGTSTNYADSVKGRFTISRDNAKNTVYLQMNSLKPEDTEVYYCARTSYRFYRKRYYWGQGTQVTVSS” the “polyreactivity (PSR sort gate)” value was “high polyreactivity”. For “QVQLVESGGGLVQAGGSLRLSCAASGSIFGYNAMGWYRQAPGKERELVAAISRSGGRTYYADSVKGRFTISRDNAKNTVYLQMNSLKPEDTAVYDCAAPVWRYYRGKTFDYWGQGTQVTVSS”, the “polyreactivity (PSR sort gate)” value was “high polyreactivity”. In the case of “QVQLVESGGGLVQAGGSLRLSCAASGSIFGYNTMGLYRKAPGKERELVAAISYRGGSTYADSVKGRFTISRDNAKNTVYLQMNSLKPVDTAVYYCDKRSIVGYRYSGYDYCGQGTQVTVSS”, the “polyreactivity (PSR sort gate)” value is reported as “high polyreactivity”. With “QVQLVESGGGLVQAGGSLRLSCAASGSIFGYNVMGWYRQAPGKEREFVAAITYRGGGTYADSVKGRFTISRDNAKNTVYLQMNSLKPEDTAVYYCAARWYGWRSRRYDYWGQGTQVTVSS” the “polyreactivity (PSR sort gate)” value was “high polyreactivity”. In the case of “QVQLVESGGGLVQAGGSLRLSCAASGSIFGYYAKGWYRQAPGKERELVAAIDSGGGSTYYADSVRGRVTISRDNAKNTVYIQMNRLKPEDTAVYYCAAVSYSYPSLLYEYWGQGTQVTVSS”, the “polyreactivity (PSR sort gate)” value is reported as “low polyreactivity”. With “QVQLVESGGGLVQAGGSLRLSCAASGSIFGYYAMGWSRQAPGKERELVASISSTGSTYYADSVKGRFTISRDNAKNTVSLQMNSLKPEDTAVYYCAADTLIFPWGFESWGQGTQVTVSS” the “polyreactivity (PSR sort gate)” value was “high polyreactivity”. For “QVQLVESGGGLVQAGGSLRLSCAASGSIFGYYAMGWYIQAPGKERELVAAISWSGGSTYYADSVKGRFTISRDNAKNTVYLQMNSLKPEDTAVYYCNAYTRRGGHDYWGQGTQVTVSS”, the “polyreactivity (PSR sort gate)” value was “high polyreactivity”. For “QVQLVESGGGLVQAGGSLRLSCAASGSIFGYYAMGWYRQAPGKERELVAAIRGSSGSTYYADSVKGRFTISRDNAKNTVYLQMNSLKPEDTAVYYCAADYRTYVYVYGFRHFDYWGQGTQVTVSS”, the “polyreactivity (PSR sort gate)” value was “low polyreactivity”. In the case of “QVQLVESGGGLVQAGGSLRLSCAASGSIFGYYAMGWYRQAPGKERELVAAITTRGGRTYYADSVKGRFTISRDNAKNTVYLQMNSLKPEDTAVYYCAARTGRGRYDYWGQGTQVTVSS”, the “polyreactivity (PSR sort gate)” value is reported as “high polyreactivity”. For “QVQLVESGGGLVQAGGSLRLSCAASGSIFGYYAMGWYRQAPGKERELVATITTRGARTYYADSVKGRFTISRDNAKNTVYLQMNSLKPEDTAVYYCAAYGYYNFGYYYWGQGTQVTVSS”, the “polyreactivity (PSR sort gate)” value was “high polyreactivity”. In the case of “QVQLVESGGGLVQAGGSLRLSCAASGSIFGYYAMGWYRQAPGKERELVAVITRDASTYYADSVKGRFTISRDNAKNTVDLQMNSLKPEDTAVYYCAADRWWRRSWVKLDYWGHGTQVTVSS”, the “polyreactivity (PSR sort gate)” value is reported as “low polyreactivity”. For “QVQLVESGGGLVQAGGSLRLSCAASGSIFGYYAMGWYRQAPGNERELVAAISRSGGSTYYADSVKGRFTISRDNAKNTVYLQMNSLKPEDTAVYYCAADDYPYGNYYWGQGTQVTVSS”, the “polyreactivity (PSR sort gate)” value was “high polyreactivity”. With “QVQLVESGGGLVQAGGSLRLSCAASGSIFGYYGMGCYIQAPGKERELVAAISARGGSTYYADSVKGRFTISRDNAKNTVYFQMNRLKPEDTAVYYCAVRYPGSRYLISKNGYWGQGTQVTVSS” the “polyreactivity (PSR sort gate)” value was “high polyreactivity”. In the case of “QVQLVESGGGLVQAGGSLRLSCAASGSIFGYYPMGWYRQAPGKERELVAAITSGGNTYYADSVKGRFTISRDNAKNTVYLQMNSLKPEDTAVYYCNAVWRTRDYDYWGQGTQVTVSS”, the “polyreactivity (PSR sort gate)” value is reported as “low polyreactivity”. For “QVQLVESGGGLVQAGGSLRLSCAASGSIFGYYTMGWYIQAPGKERELVARITRGGSTYYADSVKGRFTISRDNAKNTVYLQLNSLKPEDTAVYYCAARRVNAGWTYGLRGNYWGQGTQVTVSS”, the “polyreactivity (PSR sort gate)” value was “low polyreactivity”. With “QVQLVESGGGLVQAGGSLRLSCAASGSIFHHNAMGWYRQAPGKERELVAAISSRSGNTYYADSVKGRFTISRDNAKNTVYLQMNSLKPEDTAVYYCAKAFRGHYWGQGTQVTVSS” the “polyreactivity (PSR sort gate)” value was “high polyreactivity”. In the case of “QVQLVESGGGLVQAGGSLRLSCAASGSIFHIYAMGWYRQAPGKERELVAAMTYADSVKGRFTISRDNAKNTVYLQMNSLKPEDTAVYYCNADNWPRIHGSAYDYWGQGTQVTVSS”, the “polyreactivity (PSR sort gate)” value is reported as “low polyreactivity”. In the case of “QVQLVESGGGLVQAGGSLRLSCAASGSIFHNYDMGLYRQAPGKEREMVADISRGGDTNYADSVKGRFTISRDNAKNTVYLQLNSLKPEDTAVYYCNATYWILDSPWWRETFAYWGQGTQVTVSS”, the “polyreactivity (PSR sort gate)” value is reported as “low polyreactivity”. With “QVQLVESGGGLVQAGGSLRLSCAASGSIFHPYTMGWYRQAPGKERELVAAISWSGGNTNYADSVKGRFTISRDNAKNTVYLQMNSLKPDDTAVYYCIKATNLSGGYDSWGLGTQVTVSS” the “polyreactivity (PSR sort gate)” value was “low polyreactivity”. In the case of “QVQLVESGGGLVQAGGSLRLSCAASGSIFHRNAMGWYRQAPGKEREFVAAISWRGGSTYYADSVKGRFTISRDNAKNTVYLQMNSLKPEDTAVYYCAADPVGYYWSRRSEFYYWGQGTQVTVSS”, the “polyreactivity (PSR sort gate)” value is reported as “high polyreactivity”. In the case of “QVQLVESGGGLVQAGGSLRLSCAASGSIFHRNAMGWYRQAPGKERELVATISSSTGSTNYADSVKGRFTISRDNAKNTVYLQMNSLKPEDTAVYYCAAAPHRHSWYYTRHPYFGMDYWGQGTQVTVSS”, the “polyreactivity (PSR sort gate)” value is reported as “low polyreactivity”. In the case of “QVQLVESGGGLVQAGGSLRLSCAASGSIFHRYAMGWYRQAPGKERELVAAISRRGGSTYYADSVKGRFTISRDNAKNTVYLQMNSLIPVDTAVYYCNASLAGSSGRNRFEYWGQGTQVTVSS”, the “polyreactivity (PSR sort gate)” value is reported as “high polyreactivity”. For “QVQLVESGGGLVQAGGSLRLSCAASGSIFHWYAMGWYRQAPGKERELVAAISYSGASTYYADSVKGRFTISRDNAKITVYLQMNSLKPDDTAVYYCAAKVTGKGYYWGQGTQVTVSS”, the “polyreactivity (PSR sort gate)” value was “high polyreactivity”. In the case of “QVQLVESGGGLVQAGGSLRLSCAASGSIFHYNAMGWYRQAPGKERELVAAISWRGGTTYYADSVKGRFTISRDNAKNTVYLQMNSLKPEDTAVYYCNRAYVYTYQRRDYDYWGQGTQVTVSS”, the “polyreactivity (PSR sort gate)” value is reported as “low polyreactivity”. With “QVQLVESGGGLVQAGGSLRLSCAASGSIFIGYAMGWYRQAPGKERELVAAISNSGGRTYYADSVKGRFTISRDNAKNTVYLQMNSLKPEDTAVYYCNVAYRIPYRMDYWGQGTQVTVSS” the “polyreactivity (PSR sort gate)” value was “high polyreactivity”. In the case of “QVQLVESGGGLVQAGGSLRLSCAASGSIFIHYAMGWYRQAPGKERELVAAISRTGSTYYADSVKGRFTISRDNAKNTVYLQMNSLKPEDTAVYYCAKRISTRRYDYWGQGTQVTVSS”, the “polyreactivity (PSR sort gate)” value is reported as “low polyreactivity”. For “QVQLVESGGGLVQAGGSLRLSCAASGSIFINNGMGWYRQAPGKERELVAAINGGDGSTYYADSVKGRFTISRDNAKNTVYLQMNSLKPEDTAVYYCAKDYTIGYTYQYDYWGQGTQVTVSS”, the “polyreactivity (PSR sort gate)” value was “low polyreactivity”. For “QVQLVESGGGLVQAGGSLRLSCAASGSIFIPNAMGWYRQAPGKERELVAAISLSDTTTYYADSVKGRFTISRDNAKNTVYLQMNSLKPEDTAVYYCAADYWFYPTSPVMDYWGQGTQVTVSS”, the “polyreactivity (PSR sort gate)” value was “low polyreactivity”. In the case of “QVQLVESGGGLVQAGGSLRLSCAASGSIFIPYAMGWYRQAPGKERELVAAISGSGGSTYYADSVKGRFTISRDNAKNTVYLQMNSLKPEDTAVYYCNAVYRRSKYYFSQGYDYWGQGTQVTVSS”, the “polyreactivity (PSR sort gate)” value is reported as “high polyreactivity”. For “QVQLVESGGGLVQAGGSLRLSCAASGSIFIPYAMGWYRQAPGKETELVAAISSSGSSYYADSVKGRFTISRDNAKNTVYLQMNSLKPEDTAVYYCAAERHYSYSSYDYWGQGTQVTVSS”, the “polyreactivity (PSR sort gate)” value was “low polyreactivity”. In the case of “QVQLVESGGGLVQAGGSLRLSCAASGSIFIRNAMGWYRQAPGKERELVAAISGSGSSTYYADSVKGRFTISRDNAKNTVYLQMNSLKPEDTSVYYCNTDRNHSYQYGGYDYWGQGTQVTVSS”, the “polyreactivity (PSR sort gate)” value is reported as “low polyreactivity”. For “QVQLVESGGGLVQAGGSLRLSCAASGSIFIRNAMGWYRQAPGKERELVAAITSRGGSRYYADSVKGRFTISRDNAKNTVYLQMNSLKPEDTSVYYCARRYYGLYDYWGQGTQVTVSS”, the “polyreactivity (PSR sort gate)” value was “low polyreactivity”. For “QVQLVESGGGLVQAGGSLRLSCAASGSIFIRNAMGWYRQAPGKERELVAANSGSGSSTYYADSVKGRFTNSRDNAKNTVYLQMNSVKPEDTAVYYCNTDRTLSYQYGGYDYWGLGTQVTVSS”, the “polyreactivity (PSR sort gate)” value was “low polyreactivity”. For “QVQLVESGGGLVQAGGSLRLSCAASGSIFISNAMGWYRQAPGKERELVAAISSSGGRTYYADSVKGRFTISRDNAKNTVYLQMNSLKPEDTAVYYCAVRGLYQGRRRYSSEYDYWGQGTQVTVSS”, the “polyreactivity (PSR sort gate)” value was “high polyreactivity”. In the case of “QVQLVESGGGLVQAGGSLRLSCAASGSIFITNAMGWYRQAPGKERELVAGITSGGSTYYADSVKGRFTISRDNAKNTFYLQMNSLKPEDTAVYYCAADGVTVTADEYDYWGHGTQVTVSS”, the “polyreactivity (PSR sort gate)” value is reported as “low polyreactivity”. With “QVQLVESGGGLVQAGGSLRLSCAASGSIFITNAMGWYRQAPGKERELVATITDSGGSTYYADSVKGRFTISRDNAKNTVYLQMNSLKPEDTAVYYGAKDRVYLTRVYHYDYWGQGTQVTVSS” the “polyreactivity (PSR sort gate)” value was “low polyreactivity”. With “QVQLVESGGGLVQAGGSLRLSCAASGSIFITYAMGWYRQAHGKERELVAAIRDSGDRTYYADSVKGRFTISRDNAKNTVYLQMNSLKPEDTAVYYCNKDIERYVRIYDSWGQGTQVTVSS” the “polyreactivity (PSR sort gate)” value was “low polyreactivity”. For “QVQLVESGGGLVQAGGSLRLSCAASGSIFITYAMGWYRQAPGKERELVAAIRDSGDRTYYADSVKGRFTISRDNAKKTVYLQMNSLKPEDTAVYYCAARIWTGRGRKLGYGYDYWGQGTQVTVSS”, the “polyreactivity (PSR sort gate)” value was “low polyreactivity”. In the case of “QVQLVESGGGLVQAGGSLRLSCAASGSIFITYAMGWYRQAPGKERELVAAIRDSGDRTYYADSVKGRFTISRDYAKNTVYLQMNSLKPEDTAVYYCNARWQEPLKYDYWGQGTQVTVSS”, the “polyreactivity (PSR sort gate)” value is reported as “low polyreactivity”. In the case of “QVQLVESGGGLVQAGGSLRLSCAASGSIFITYAMGWYRQAPGKERELVAAIRRGGRTNYADSVKGRFTISRDNAKNTVYLQMNSLKPEDTAVYYCAAEFRTGWPYYPDYAYDYWGQGTQVTVSS”, the “polyreactivity (PSR sort gate)” value is reported as “low polyreactivity”. In the case of “QVQLVESGGGLVQAGGSLRLSCAASGSIFITYDMGWYRQAPGKERELVAAISSVGRTTYADSVKGRFTISRDNAKNTVYLQMNSLKTEDTAVYYCAVVGRSSHNVRTYGYWGQGTQVTVTS”, the “polyreactivity (PSR sort gate)” value is reported as “low polyreactivity”. For “QVQLVESGGGLVQAGGSLRLSCAASGSIFIVYAMGWYRQAPGKERELVAAISWSGGSTYYADSVKGRFTISRDNAKNTVYLQMNSLNPEDTAVYYCDAKYTLPFRDVKYYSWGQGTQVTVSS”, the “polyreactivity (PSR sort gate)” value was “high polyreactivity”. In the case of “QVQLVESGGGLVQAGGSLRLSCAASGSIFIYNAMGWYRQAPGKERELVAAISSSGGSTYYADSVKGRFTISRDNAKNTVYLQMNSLKPEDTAVYYCAARTYYVRGLGGRPGMDYCGQGTQVTVSS”, the “polyreactivity (PSR sort gate)” value is reported as “low polyreactivity”.
